Measurements taken from US20210130436A1.

Legend:
[1] = molecular target: PD-L1 (human) (UniProt Q9NZQ7); assay: cell-based or functional assay
[2] = molecular target: CD28 (human) (UniProt P10747); assay: cell-based or functional assay

WT CD80 ECD-Fc (inert) (Fc fusion), sequence (chain): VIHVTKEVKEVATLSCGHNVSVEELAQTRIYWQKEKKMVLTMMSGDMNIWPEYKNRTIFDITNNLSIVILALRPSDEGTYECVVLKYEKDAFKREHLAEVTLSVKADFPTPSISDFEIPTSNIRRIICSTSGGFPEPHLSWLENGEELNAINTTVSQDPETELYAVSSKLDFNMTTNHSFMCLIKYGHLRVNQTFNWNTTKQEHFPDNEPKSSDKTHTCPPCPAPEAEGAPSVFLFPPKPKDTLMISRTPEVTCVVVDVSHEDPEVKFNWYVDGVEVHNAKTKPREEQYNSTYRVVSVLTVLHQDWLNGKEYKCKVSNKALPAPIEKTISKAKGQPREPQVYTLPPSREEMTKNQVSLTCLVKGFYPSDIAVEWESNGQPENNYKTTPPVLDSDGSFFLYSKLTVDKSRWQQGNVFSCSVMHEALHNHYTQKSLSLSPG
PD-L1 (human), sequence (Q9NZQ7 19-290): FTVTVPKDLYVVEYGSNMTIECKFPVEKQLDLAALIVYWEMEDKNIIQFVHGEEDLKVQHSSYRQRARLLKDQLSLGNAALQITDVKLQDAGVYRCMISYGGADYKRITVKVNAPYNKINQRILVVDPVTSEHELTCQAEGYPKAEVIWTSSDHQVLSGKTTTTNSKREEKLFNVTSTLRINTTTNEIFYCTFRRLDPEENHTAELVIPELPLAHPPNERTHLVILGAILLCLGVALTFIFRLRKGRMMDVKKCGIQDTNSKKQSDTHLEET

## CD80 IgV-Fc (inert) H18V/A26K/E35D/M47L/V68M/A71G (from UniProt P33681 35-141) (Fc fusion)
[1]
  RLU, Jurkat/IL2 + CHO/OKT3/PD-L1 Reporter Assay, CD80 Conc 5.0 nM: 957 RLU

## CD80 IgV-Fc (inert) H18V/A26N/E35D/M47V/V68M/A71G (from UniProt P33681 35-141) (Fc fusion)
[1]
  RLU, Jurkat/IL2 + CHO/OKT3/PD-L1 Reporter Assay, CD80 Conc 5.0 nM: 985 RLU

## CD80 IgV-Fc (inert) H18V/A26R/E35D/M47L/V68M/A71G/D90G (from UniProt P33681 35-141) (Fc fusion)
[1]
  RLU, Jurkat/IL2 + CHO/OKT3/PD-L1 Reporter Assay, CD80 Conc 5.0 nM: 738 RLU

## CD80 IgV-Fc (inert) H18Y/A26P/E35D/M47I/V68M/A71G (from UniProt P33681 35-141) (Fc fusion)
[1]
  RLU, Jurkat/IL2 + CHO/OKT3/PD-L1 Reporter Assay, CD80 Conc 5.0 nM: 761 RLU

## CD80 IgV-Fc (inert) H18Y/A26Q/E35D/M47T/V68M/A71G/D90G (from UniProt P33681 35-141) (Fc fusion)
[1]
  RLU, Jurkat/IL2 + CHO/OKT3/PD-L1 Reporter Assay, CD80 Conc 5.0 nM: 994 RLU

## CD80 IgV-Fc (inert) H18Y/E35D/M47V/V68M/A71G (from UniProt P33681 35-141) (Fc fusion)
[1]
  RLU, Jurkat/IL2 + CHO/OKT3/PD-L1 Reporter Assay, CD80 Conc 5.0 nM: 963 RLU

## CD80 IgV-Fc D46V/M47I/A71G (from UniProt P33681 35-141) (Fc fusion)
[1]
  Jurkat/IL2 + CHO/OKT3/PD-L1 reporter assay, RLU at CD80 Conc 5.0 nM: 1600 RLU

## CD80 IgV-Fc E35D/D46E (from UniProt P33681 35-141) (Fc fusion)
[1]
  Jurkat/IL2 + CHO/OKT3/PD-L1 reporter assay, RLU at CD80 Conc 5.0 nM: 1960 RLU

## CD80 IgV-Fc E35D/D46E/A91G (from UniProt P33681 35-141) (Fc fusion)
[1]
  Jurkat/IL2 + CHO/OKT3/PD-L1 reporter assay, RLU at CD80 Conc 5.0 nM: 395 RLU

## CD80 IgV-Fc E35D/D46E/L85M (from UniProt P33681 35-141) (Fc fusion)
[1]
  Jurkat/IL2 + CHO/OKT3/PD-L1 reporter assay, RLU at CD80 Conc 5.0 nM: 1410 RLU

## CD80 IgV-Fc E35D/D46E/M47I (from UniProt P33681 35-141) (Fc fusion)
[1]
  Jurkat/IL2 + CHO/OKT3/PD-L1 reporter assay, RLU at CD80 Conc 5.0 nM: 1920 RLU

## CD80 IgV-Fc E35D/L97R (from UniProt P33681 35-141) (Fc fusion)
[1]
  Jurkat/IL2 + CHO/OKT3/PD-L1 reporter assay, RLU at CD80 Conc 5.0 nM: 914 RLU

## CD80 IgV-Fc E35D/M43I/D46E/A71G/L85M (from UniProt P33681 35-141) (Fc fusion)
[1]
  Jurkat/IL2 + CHO/OKT3/PD-L1 reporter assay, RLU at CD80 Conc 5.0 nM: 1480 RLU

## CD80 IgV-Fc E35D/M43I/M47L/L85M (from UniProt P33681 35-141) (Fc fusion)
[1]
  Jurkat/IL2 + CHO/OKT3/PD-L1 reporter assay, RLU at CD80 Conc 5.0 nM: 1430 RLU

## CD80 IgV-Fc E35D/M47L/A71G (from UniProt P33681 35-141) (Fc fusion)
[1]
  Jurkat/IL2 + CHO/OKT3/PD-L1 reporter assay, RLU at CD80 Conc 5.0 nM: 1950 RLU

## CD80 IgV-Fc E35D/M47L/A71G/L85M (from UniProt P33681 35-141) (Fc fusion)
[1]
  Jurkat/IL2 + CHO/OKT3/PD-L1 reporter assay, RLU at CD80 Conc 5.0 nM: 1510 RLU

## CD80 IgV-Fc E35D/M47V (from UniProt P33681 35-141) (Fc fusion)
[1]
  Jurkat/IL2 + CHO/OKT3/PD-L1 reporter assay, RLU at CD80 Conc 5.0 nM: 1350 RLU

## CD80 IgV-Fc E35D/M47V/I61V/L85M (from UniProt P33681 35-141) (Fc fusion)
[1]
  Jurkat/IL2 + CHO/OKT3/PD-L1 reporter assay, RLU at CD80 Conc 5.0 nM: 1180 RLU

## CD80 IgV-Fc E35D/M47V/L85M/R94Q (from UniProt P33681 35-141) (Fc fusion)
[1]
  Jurkat/IL2 + CHO/OKT3/PD-L1 reporter assay, RLU at CD80 Conc 5.0 nM: 466 RLU

## CD80 IgV-Fc E35D/M47V/T62S/L85Q (from UniProt P33681 35-141) (Fc fusion)
[1]
  Jurkat/IL2 + CHO/OKT3/PD-L1 reporter assay, RLU at CD80 Conc 5.0 nM: 1400 RLU

## CD80 IgV-Fc E35D/N48K/L72V (from UniProt P33681 35-141) (Fc fusion)
[1]
  Jurkat/IL2 + CHO/OKT3/PD-L1 reporter assay, RLU at CD80 Conc 5.0 nM: 1730 RLU

## CD80 IgV-Fc E35D/T41S/N48T (from UniProt P33681 35-141) (Fc fusion)
[1]
  Jurkat/IL2 + CHO/OKT3/PD-L1 reporter assay, RLU at CD80 Conc 5.0 nM: 1140 RLU

## CD80 IgV-Fc H18Y/E35D/M47L/A71G/A91S (from UniProt P33681 35-141) (Fc fusion)
[1]
  Jurkat/IL2 + CHO/OKT3/PD-L1 reporter assay, RLU at CD80 Conc 5.0 nM: 1900 RLU

## CD80 IgV-Fc M43I/M47L/A71G (from UniProt P33681 35-141) (Fc fusion)
[1]
  Jurkat/IL2 + CHO/OKT3/PD-L1 reporter assay, RLU at CD80 Conc 5.0 nM: 1640 RLU

## CD80 IgV-Fc M47I/A71G (from UniProt P33681 35-141) (Fc fusion)
[1]
  Jurkat/IL2 + CHO/OKT3/PD-L1 reporter assay, RLU at CD80 Conc 5.0 nM: 1760 RLU

## CD80 IgV-Fc Q27H/E35D/M47I (from UniProt P33681 35-141) (Fc fusion)
[1]
  Jurkat/IL2 + CHO/OKT3/PD-L1 reporter assay, RLU at CD80 Conc 5.0 nM: 1830 RLU

## CD80 IgV-Fc Q27L/E35D/M47V/I61V/L85M (from UniProt P33681 35-141) (Fc fusion)
[1]
  Jurkat/IL2 + CHO/OKT3/PD-L1 reporter assay, RLU at CD80 Conc 5.0 nM: 1170 RLU

## CD80 IgV-Fc V22A/E35D/M47L/A71G (from UniProt P33681 35-141) (Fc fusion)
[1]
  Jurkat/IL2 + CHO/OKT3/PD-L1 reporter assay, RLU at CD80 Conc 5.0 nM: 2580 RLU

## Fc only Control (inert Fc) (from UniProt P0DOX5 218-448)
[1]
  IL-2 release, primary T cells; K562/OKT3/PD-L1; 10 nM: 143
  RLU, Jurkat/IL2 reporter; K562/OKT3/PD-L1 aAPC, Combination of FcR and/or PD-L1 Dependent Cross-Linking; 0.6 nM: 689 RLU
  RLU, Jurkat/IL2 reporter; K562/OKT3/PD-L1 aAPC, Combination of FcR and/or PD-L1 Dependent Cross-Linking; 1.9 nM: 675 RLU
  RLU, Jurkat/IL2 reporter; K562/OKT3/PD-L1 aAPC, Combination of FcR and/or PD-L1 Dependent Cross-Linking; 5.6 nM: 666 RLU
  RLU, Jurkat/IL2 reporter; K562/OKT3/PD-L1 aAPC, Combination of FcR and/or PD-L1 Dependent Cross-Linking; 16.7 nM: 694 RLU
  RLU, Jurkat/IL2 reporter; K562/OKT3/PD-L1 aAPC, Combination of FcR and/or PD-L1 Dependent Cross-Linking; 50 nM: 679 RLU
[2]
  IL-2 release, primary T cells; K562/OKT3 (No PD-L1); 1 nM: 7040
  IL-2 release, primary T cells; K562/OKT3 (No PD-L1); 10 nM: 6340
  IL-2 release, primary T cells; K562/OKT3 (No PD-L1); 100 nM: 5510
  RLU, Jurkat/IL2 reporter; K562/OKT3 aAPC, FcR Dependent Cross-Linking (No PD-L1); 0.6 nM: 1400 RLU
  RLU, Jurkat/IL2 reporter; K562/OKT3 aAPC, FcR Dependent Cross-Linking (No PD-L1); 1.9 nM: 1390 RLU
  RLU, Jurkat/IL2 reporter; K562/OKT3 aAPC, FcR Dependent Cross-Linking (No PD-L1); 5.6 nM: 1390 RLU
  RLU, Jurkat/IL2 reporter; K562/OKT3 aAPC, FcR Dependent Cross-Linking (No PD-L1); 16.7 nM: 1370 RLU
  RLU, Jurkat/IL2 reporter; K562/OKT3 aAPC, FcR Dependent Cross-Linking (No PD-L1); 50 nM: 1370 RLU

## WT CD80 ECD-Fc (effector) (from UniProt P33681 35-242) (Fc fusion)
[1]
  IL-2 release, primary T cells; K562/OKT3/PD-L1; 1 nM: 507
  IL-2 release, primary T cells; K562/OKT3/PD-L1; 10 nM: 3110
  IL-2 release, primary T cells; K562/OKT3/PD-L1; 100 nM: 8390
[2]
  IL-2 release, primary T cells; K562/OKT3 (No PD-L1); 1 nM: 11400
  IL-2 release, primary T cells; K562/OKT3 (No PD-L1); 10 nM: 20200
  IL-2 release, primary T cells; K562/OKT3 (No PD-L1); 100 nM: 23100

## WT CD80 ECD-Fc (inert) (Fc fusion)
[1]
  RLU, Jurkat/IL2 reporter; K562/OKT3/PD-L1 aAPC, Combination of FcR and/or PD-L1 Dependent Cross-Linking; 0.6 nM: 692 RLU
  RLU, Jurkat/IL2 reporter; K562/OKT3/PD-L1 aAPC, Combination of FcR and/or PD-L1 Dependent Cross-Linking; 1.9 nM: 705 RLU
  RLU, Jurkat/IL2 reporter; K562/OKT3/PD-L1 aAPC, Combination of FcR and/or PD-L1 Dependent Cross-Linking; 5.6 nM: 847 RLU
  RLU, Jurkat/IL2 reporter; K562/OKT3/PD-L1 aAPC, Combination of FcR and/or PD-L1 Dependent Cross-Linking; 16.7 nM: 875 RLU
  RLU, Jurkat/IL2 reporter; K562/OKT3/PD-L1 aAPC, Combination of FcR and/or PD-L1 Dependent Cross-Linking; 50 nM: 1520 RLU
[2]
  IL-2-luciferase RLU, Jurkat + CHO/OKT3/PD-L1 aAPC, 0.6 nM: 518 RLU
  IL-2-luciferase RLU, Jurkat + CHO/OKT3/PD-L1 aAPC, 1.9 nM: 474 RLU
  IL-2-luciferase RLU, Jurkat + CHO/OKT3/PD-L1 aAPC, 5.6 nM: 505 RLU
  IL-2-luciferase RLU, Jurkat + CHO/OKT3/PD-L1 aAPC, 16.7 nM: 462 RLU
  IL-2-luciferase RLU, Jurkat + CHO/OKT3 aAPC (no PD-L1), 5.6 nM: 436 RLU
  IL-2-luciferase RLU, Jurkat + CHO/OKT3 aAPC (no PD-L1), 16.7 nM: 412 RLU
  IL-2-luciferase RLU, Jurkat + CHO/OKT3 aAPC (no PD-L1), 50 nM: 420 RLU
  IL-2 release, primary T cells; K562/OKT3 (No PD-L1); 1 nM: 8050
  IL-2 release, primary T cells; K562/OKT3 (No PD-L1); 10 nM: 7020
  IL-2 release, primary T cells; K562/OKT3 (No PD-L1); 100 nM: 6480
  RLU, Jurkat/IL2 reporter; K562/OKT3 aAPC, FcR Dependent Cross-Linking (No PD-L1); 0.6 nM: 1340 RLU
  RLU, Jurkat/IL2 reporter; K562/OKT3 aAPC, FcR Dependent Cross-Linking (No PD-L1); 1.9 nM: 1270 RLU
  RLU, Jurkat/IL2 reporter; K562/OKT3 aAPC, FcR Dependent Cross-Linking (No PD-L1); 5.6 nM: 1480 RLU
  RLU, Jurkat/IL2 reporter; K562/OKT3 aAPC, FcR Dependent Cross-Linking (No PD-L1); 16.7 nM: 1730 RLU
  RLU, Jurkat/IL2 reporter; K562/OKT3 aAPC, FcR Dependent Cross-Linking (No PD-L1); 50 nM: 2200 RLU
